Assay results taken from patent US8609357B2, “Methods for detecting LP-PLA2 activity and inhibition of LP-PLA2 activity” (Glaxo Group Limited, priority 2004, dated 2013).
Several values for one entry are separate records, joined by “and”; a condition that tells them apart may be missing. Identical values can stand only once.

Legend:
[1] = Plasma level of inhibitor in clinical studies (pharmacokinetics); conditions: human subjects, administered in vivo
Lp-PLA2 = biological target: T1, Lp-PLA2 (Homo sapiens, UniProt Q13093); test: Auto PAF AH assay (Azwell kit, Olympus Au640); format: biochemical
T1 construct: Unless otherwise indicated all plasma samples were collected from human and are human plasma; from tissue; host or cells: human blood plasma (EDTA)
T1 sequence (Q13093 22-441): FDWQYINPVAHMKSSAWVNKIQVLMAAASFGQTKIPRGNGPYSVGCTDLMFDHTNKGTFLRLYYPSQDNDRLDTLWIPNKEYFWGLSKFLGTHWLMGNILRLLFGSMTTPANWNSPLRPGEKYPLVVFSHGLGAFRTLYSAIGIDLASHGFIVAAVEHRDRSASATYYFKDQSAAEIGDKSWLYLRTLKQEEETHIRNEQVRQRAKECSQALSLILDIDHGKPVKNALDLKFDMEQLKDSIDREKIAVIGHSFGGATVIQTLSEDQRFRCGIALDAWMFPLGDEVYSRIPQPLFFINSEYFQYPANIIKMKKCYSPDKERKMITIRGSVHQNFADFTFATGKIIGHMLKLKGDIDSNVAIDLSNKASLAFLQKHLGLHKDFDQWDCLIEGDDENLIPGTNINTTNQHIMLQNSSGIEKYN
Experimental: The Auto PAF AH assay kit, manufactured by Azwell (Osaka, Japan), is commercially available in the United States through Karlan Research Products Corporation (Santa Rosa, Calif.).
Azwell Auto PAF-AH Assay Kit:
Prepare the following reagents: • R1: Use this buffer solution as supplied in Azwell Auto PAF AH assay kit. Store at 4° C. Protect from light. • R2: Prepare the R2 working solution by mixing R2A and R2B (supplied in Azwell Auto PAF AH assay kit) in the proportion of 19:1. Store at 4° C. Protect from light. • 3. […] Briefly centrifuge to spin down fibrin clots/particles in the plasma. • 4. Place Sarstedt tubes containing plasma samples onto sample tubes that fit the instrument. Run plasma samples through the Au640 analyzer. After choosing the PAF AH assay program, the analytical procedure described below is performed automatically: • Test sample (2 μL)+R1 (240 μL), 37° C., 5 minutes [0-5 minutes] • Add R2 (80 μL), 37° C., 5 minutes [5-10 minutes] • Measure the absorbance at 410 nm and 480 nm [6-8 minutes] • Calculate PAF AH activity (IU/L) • 5.

[2] = biological target: T2, recombinant human Lp-PLA2 protein (hrLp-PLA2) (Homo sapiens, UniProt Q13093); test: Modified colorimetric assay of recombinant human Lp-PLA2 protein (dynamic range); format: biochemical; conditions: for Activity (assay dynamic range): hrLp-PLA2 14.6-3750 ng/ml, […] substrate/45 μL
T2 construct: made in house
T2 sequence (Q13093 22-441): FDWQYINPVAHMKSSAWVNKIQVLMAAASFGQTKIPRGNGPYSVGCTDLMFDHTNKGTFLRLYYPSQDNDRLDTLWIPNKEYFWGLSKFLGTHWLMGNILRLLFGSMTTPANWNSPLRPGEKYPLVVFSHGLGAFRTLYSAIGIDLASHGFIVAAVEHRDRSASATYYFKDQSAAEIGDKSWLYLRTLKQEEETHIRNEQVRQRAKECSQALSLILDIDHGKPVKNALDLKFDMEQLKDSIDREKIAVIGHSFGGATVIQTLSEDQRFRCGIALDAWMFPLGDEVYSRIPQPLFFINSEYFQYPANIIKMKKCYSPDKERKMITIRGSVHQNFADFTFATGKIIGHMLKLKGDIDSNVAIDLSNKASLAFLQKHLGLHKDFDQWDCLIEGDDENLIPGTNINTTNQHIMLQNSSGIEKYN
Experimental: (§1) Assay dynamic range was defined by using both recombinant human Lp-PLA2 protein (hrLp-PLA2) generated in-house and Lp-PLA2 protein purified from human plasma in-house.
hrLp-PLA2 was serially diluted and 25 μL of each diluted hrLp-PLA2 were assayed by a modified drug-sensitive colorimetric assay (data shown in Table 10). […]. (see Table 10).
[…]. Therefore, such conditions with lower substrate concentration and higher sample volume could be used when higher measurable in vivo inhibition is desired while the range of Lp-PLA2 activity for test samples is limited or could be compromised. […]. Earlier and shorter reaction time could be considered to use in activity calculation to improve assay dynamic range when such conditions are used.

[3] = biological target: T3, hLp-PLA2 purified from plasma (Homo sapiens, UniProt Q13093); test: Modified colorimetric assay of Lp-PLA2 purified from human plasma (dynamic range); format: biochemical
T3 construct: Lp-PLA2 protein purified from human plasma in-house; from tissue; host or cells: human plasma, purified in-house
T3 sequence (Q13093 22-441): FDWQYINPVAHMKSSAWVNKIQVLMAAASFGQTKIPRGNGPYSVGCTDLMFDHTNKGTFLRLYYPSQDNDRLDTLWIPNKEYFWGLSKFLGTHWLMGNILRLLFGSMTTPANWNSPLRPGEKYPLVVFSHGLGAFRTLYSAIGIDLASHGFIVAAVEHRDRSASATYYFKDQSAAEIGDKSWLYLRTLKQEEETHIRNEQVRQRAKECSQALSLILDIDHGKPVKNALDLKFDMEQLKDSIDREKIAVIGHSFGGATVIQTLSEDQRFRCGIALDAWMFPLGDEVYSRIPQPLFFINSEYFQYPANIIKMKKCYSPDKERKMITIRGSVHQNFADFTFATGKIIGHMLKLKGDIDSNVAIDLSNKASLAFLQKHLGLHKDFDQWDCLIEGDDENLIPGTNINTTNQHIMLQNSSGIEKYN
Experimental: as §1
hLp-PLA2 purified from plasma was also serially diluted and 25 pt of each dilution were assayed by a modified drug-sensitive colorimetric assay (data shown in Table 11). […] The relatively lower upper limit of the dynamic range determined by purified hLp-PLA2 may be resulted from interference factors possibly present in the purified product and/or introduced during purification process. Limited availability of such purified protein prevents further investigation.

CCN(CC)CCN(Cc1ccc(-c2ccc(C(F)(F)F)cc2)cc1)C(=O)Cn1c(SCc2ccc(F)cc2)nc(=O)c2c1CCC2 [Formula II, 1-(N-(2-(Diethylamino)ethyl)-N-(4-(4-trifluoromethylphenyl)benzyl)-aminocarbonylmethyl)-2-(4-fluorobenzyl)thio-5,6-trimethylenepyrimidin-4-one bitartrate]
peak plasma level [1]: 90 ng/mL

CCCCCCCCCCCCCC(=O)OCC(COP(=O)([O-])OCC[N+](C)(C)C)OC(=O)CCC(=O)Oc1ccc([N+](=O)[O-])cc1 (stereo not shown) [substrate, reference compound]
Km (Lp-PLA2; plasma as the enzyme source, Auto PAF AH protocol): ~200 µM and 200 µM

COCCN1CCC(N(Cc2ccc(-c3ccc(C(F)(F)F)cc3)cc2)C(=O)Cn2c(SCc3cccc(F)c3F)cc(=O)c3ccccc32)CC1 [Formula I]
drug inhibition by Auto PAF AH assay (Lp-PLA2; four subjects, 80-240 mg in vivo): failed to indicate drug inhibition
Lp-PLA2 inhibition measured by Auto PAF AH assay (Lp-PLA2; six drug-treated human subjects, 120-240 mg in vivo): not apparent

B1: hrLp-PLA2: recombinant human Lp-PLA2 protein generated in-house (protein, UniProt Q13093 22-441, looked up)
Platelet-activating factor …: FDWQYINPVAHMKSSAWVNKIQVLMAAASFGQTKIPRGNGPYSVGCTDLMFDHTNKGTFLRLYYPSQDNDRLDTLWIPNKEYFWGLSKFLGTHWLMGNILRLLFGSMTTPANWNSPLRPGEKYPLVVFSHGLGAFRTLYSAIGIDLASHGFIVAAVEHRDRSASATYYFKDQSAAEIGDKSWLYLRTLKQEEETHIRNEQVRQRAKECSQALSLILDIDHGKPVKNALDLKFDMEQLKDSIDREKIAVIGHSFGGATVIQTLSEDQRFRCGIALDAWMFPLGDEVYSRIPQPLFFINSEYFQYPANIIKMKKCYSPDKERKMITIRGSVHQNFADFTFATGKIIGHMLKLKGDIDSNVAIDLSNKASLAFLQKHLGLHKDFDQWDCLIEGDDENLIPGTNINTTNQHIMLQNSSGIEKYN
Activity ([2]; hrLp-PLA2 4.88 ng/mL, […] Substrate/45 μL): 2.71 nmol/min/mL
Activity ([2]; hrLp-PLA2 9.77 ng/mL, […] Substrate/45 μL): 5.13 nmol/min/mL
Activity ([2]; hrLp-PLA2 19.53 ng/mL, […] Substrate/45 μL): 9.27 nmol/min/mL
Activity ([2]; hrLp-PLA2 39.06 ng/mL, […] Substrate/45 μL): 17.81 nmol/min/mL
Activity ([2]; hrLp-PLA2 78.13 ng/mL, […] Substrate/45 μL): 30.16 nmol/min/mL
Activity ([2]; hrLp-PLA2 156.25 ng/mL, […] Substrate/45 μL): 51.62 nmol/min/mL
Activity ([2]; hrLp-PLA2 312.50 ng/mL, […] Substrate/45 μL): 84.14 nmol/min/mL
Activity ([2]; hrLp-PLA2 625.00 ng/mL, […] Substrate/45 μL): 109.44 nmol/min/mL
Activity ([2]; hrLp-PLA2 1250.00 ng/mL, […] Substrate/45 μL): 93.90 nmol/min/mL
Activity ([2]; hrLp-PLA2 1650 ng/ml, 25 uL assayed): 30.0 nmol/min/mL
Activity ([2]; hrLp-PLA2 3300 ng/ml, 25 uL assayed): 69.7 nmol/min/mL
Activity ([2]; hrLp-PLA2 6600 ng/ml, 25 uL assayed): 169.0 nmol/min/mL
Activity ([2]; hrLp-PLA2 14666 ng/ml, 25 uL assayed): 413.7 nmol/min/mL
Activity (assay dynamic range) ([2]; reaction time used for calculation 30 sec-0): 3.4 to 210 nmol/min/mL
Activity (assay dynamic range) ([2]; reaction time used for calculation 1 min-0): 3.2 to 196.5 nmol/min/mL

B2: Purified hLp-PLA2 (protein, UniProt Q13093 22-441, looked up)
Platelet-activating factor …: FDWQYINPVAHMKSSAWVNKIQVLMAAASFGQTKIPRGNGPYSVGCTDLMFDHTNKGTFLRLYYPSQDNDRLDTLWIPNKEYFWGLSKFLGTHWLMGNILRLLFGSMTTPANWNSPLRPGEKYPLVVFSHGLGAFRTLYSAIGIDLASHGFIVAAVEHRDRSASATYYFKDQSAAEIGDKSWLYLRTLKQEEETHIRNEQVRQRAKECSQALSLILDIDHGKPVKNALDLKFDMEQLKDSIDREKIAVIGHSFGGATVIQTLSEDQRFRCGIALDAWMFPLGDEVYSRIPQPLFFINSEYFQYPANIIKMKKCYSPDKERKMITIRGSVHQNFADFTFATGKIIGHMLKLKGDIDSNVAIDLSNKASLAFLQKHLGLHKDFDQWDCLIEGDDENLIPGTNINTTNQHIMLQNSSGIEKYN
Activity ([3]; Purified hLp-PLA2 6.25 ng/ml): 2.47 nmol/min/mL
Activity ([3]; Purified hLp-PLA2 12.50 ng/ml): 5.06 nmol/min/mL
Activity ([3]; Purified hLp-PLA2 50.00 ng/ml): 25.68 nmol/min/mL
Activity ([3]; Purified hLp-PLA2 100.00 ng/ml): 54.34 nmol/min/mL
Activity ([3]; Purified hLp-PLA2 200.00 ng/ml): 119.34 nmol/min/mL
Activity ([3]; Purified hLp-PLA2 400.00 ng/ml): 212.95 nmol/min/mL
Activity ([3]; Purified hLp-PLA2 600.00 ng/ml): 273.60 nmol/min/mL
Activity ([3]; Purified hLp-PLA2 800.00 ng/ml): 324.85 nmol/min/mL
Activity ([3]; Purified hLp-PLA2 1000.00 ng/ml): 338.51 nmol/min/mL
